Values of other authors in paper PMC9852560.

Target: laminin gamma1 (UniProt P02468)
Experiment: SEC

Sequence of UniProt P02468 (P02468 34-1607): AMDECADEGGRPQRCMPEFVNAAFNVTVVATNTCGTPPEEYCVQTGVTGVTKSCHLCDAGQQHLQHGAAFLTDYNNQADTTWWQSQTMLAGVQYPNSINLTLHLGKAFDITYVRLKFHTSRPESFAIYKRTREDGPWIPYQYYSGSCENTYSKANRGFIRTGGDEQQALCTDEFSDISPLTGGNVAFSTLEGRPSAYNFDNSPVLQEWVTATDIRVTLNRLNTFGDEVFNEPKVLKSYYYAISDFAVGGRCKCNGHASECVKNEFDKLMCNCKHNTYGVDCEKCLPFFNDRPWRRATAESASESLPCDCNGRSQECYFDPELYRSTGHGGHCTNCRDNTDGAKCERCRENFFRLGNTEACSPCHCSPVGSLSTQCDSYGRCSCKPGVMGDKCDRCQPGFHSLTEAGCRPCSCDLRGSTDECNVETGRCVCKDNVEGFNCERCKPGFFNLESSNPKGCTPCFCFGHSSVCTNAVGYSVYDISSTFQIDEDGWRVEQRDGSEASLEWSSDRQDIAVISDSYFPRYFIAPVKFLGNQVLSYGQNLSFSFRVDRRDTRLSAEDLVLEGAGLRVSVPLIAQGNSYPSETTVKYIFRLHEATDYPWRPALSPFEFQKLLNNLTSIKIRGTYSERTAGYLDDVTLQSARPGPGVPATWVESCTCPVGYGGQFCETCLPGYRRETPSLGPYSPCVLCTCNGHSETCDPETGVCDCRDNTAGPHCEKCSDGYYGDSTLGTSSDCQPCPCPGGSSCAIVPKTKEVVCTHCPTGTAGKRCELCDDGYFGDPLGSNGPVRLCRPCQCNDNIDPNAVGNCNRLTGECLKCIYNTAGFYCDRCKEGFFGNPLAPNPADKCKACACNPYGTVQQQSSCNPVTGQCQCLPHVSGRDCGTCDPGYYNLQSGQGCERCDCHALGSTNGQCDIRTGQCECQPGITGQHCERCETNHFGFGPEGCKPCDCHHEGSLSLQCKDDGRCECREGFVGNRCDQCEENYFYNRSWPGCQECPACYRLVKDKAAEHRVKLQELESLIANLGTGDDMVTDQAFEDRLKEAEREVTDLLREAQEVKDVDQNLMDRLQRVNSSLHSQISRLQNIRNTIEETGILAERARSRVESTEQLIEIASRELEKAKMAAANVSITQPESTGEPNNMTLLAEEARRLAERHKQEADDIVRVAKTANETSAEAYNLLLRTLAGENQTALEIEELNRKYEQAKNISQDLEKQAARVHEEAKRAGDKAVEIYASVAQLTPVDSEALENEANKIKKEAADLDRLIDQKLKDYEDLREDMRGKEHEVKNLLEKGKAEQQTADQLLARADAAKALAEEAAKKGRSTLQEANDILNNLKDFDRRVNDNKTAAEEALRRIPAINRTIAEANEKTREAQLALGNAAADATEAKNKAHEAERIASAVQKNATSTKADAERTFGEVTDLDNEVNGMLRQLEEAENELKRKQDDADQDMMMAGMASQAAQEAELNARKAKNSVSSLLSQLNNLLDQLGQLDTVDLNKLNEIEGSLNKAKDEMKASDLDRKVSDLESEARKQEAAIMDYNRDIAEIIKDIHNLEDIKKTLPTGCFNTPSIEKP

- Kd: 21 µM
Substance: laminin beta1 (from UniProt P02469)
